From publication PMC11870394

Target: RSV prefusion F (PR-DM) (respiratory syncytial virus A) (UniProt P03420)
Assay: cryo-EM structure

RSV prefusion F (PR-DM) (from UniProt P03420) (complex)
stoichiometry N: 3
